From patent publication US20220397533A1 come the findings set out here.

Assay [1] deals with poly-L-lysine. Description: SPR imaging, PLL-coated Al microarray, chemokines in PBS buffer; difference against CXCL10 as reference.
Assay [2] has as its target poly-L-lysine. Description: SPR imaging, PLL-coated Al microarray, chemokines spiked in artificial urine matrix; difference against CXCL10 as reference.
Assay [3] deals with biotinylated bovine serum albumin (bovine) (UniProt P02769). The assay is described as follows: SPR angular scanning on Al/Al2O3 film, streptavidin 500 µg/mL in 1xPBS buffer.
Assay [4] has the same target. Description: SPR angular scanning on Al/Al2O3 film, streptavidin 500 µg/mL spiked in undiluted human serum, serum-only control subtracted.

Chain of biotinylated bovine serum albumin (bovine) (P02769 25-607 limits assumed, form in doubt): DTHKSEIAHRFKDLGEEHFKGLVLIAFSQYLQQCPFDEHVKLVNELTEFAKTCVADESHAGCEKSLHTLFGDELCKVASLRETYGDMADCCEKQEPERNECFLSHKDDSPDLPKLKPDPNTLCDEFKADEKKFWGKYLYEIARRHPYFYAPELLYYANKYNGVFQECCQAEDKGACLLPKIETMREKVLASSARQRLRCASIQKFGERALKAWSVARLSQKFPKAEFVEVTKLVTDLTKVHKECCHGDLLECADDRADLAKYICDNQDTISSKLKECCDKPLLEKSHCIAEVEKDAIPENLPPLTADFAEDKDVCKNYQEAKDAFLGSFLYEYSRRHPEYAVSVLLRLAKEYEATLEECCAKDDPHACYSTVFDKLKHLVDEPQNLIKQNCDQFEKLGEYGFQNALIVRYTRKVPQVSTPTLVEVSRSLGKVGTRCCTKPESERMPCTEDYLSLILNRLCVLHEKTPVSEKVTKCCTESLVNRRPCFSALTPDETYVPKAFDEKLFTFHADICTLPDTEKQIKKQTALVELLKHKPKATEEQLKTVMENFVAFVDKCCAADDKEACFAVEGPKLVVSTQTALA

For “CXCL8 (from UniProt P10145 29-99) (ligand)”, the relative difference in response between CXCL10 and CXCL8 (kinetic reflectivity shift) came to 0.25% in the assay with poly-L-lysine [1] and 0.68% with poly-L-lysine [2].

“streptavidin (from UniProt P22629 37-163)”: the specific binding signal (SPR angular shift) stood at 0.21 ° in assay [3] and 0.17 ° in assay [4].
